# B1: D8-IgG1 (antibody, V domains shown)
# VH: QVQLVQSGAEVKKPGSSVKVSCKASGGTFSAYAFTWVRQAPGQGLEWMGGITGMFGTANYAQKFQGRVTITADELTSTAYMELSSLTSEDTALYYCARGLYYYESSLDYWGQGTLVTVSS
# VL: QSVLTQPPSASGSPGQSVTISCTGTSSDVGGYNSVSWYQQHPGKAPKLMIYEVTKRPSGVPDRFSASKSGNTASLTVSGLQAEDEADYFCCSYAGHSAYVFGTGTKVTVL
# B2: F10-IgG1 (antibody, V domains shown)
# VH: QVQLVQSGAEVKKPGSSVKVSCTSSEVTFSSFAISWVRQAPGQGLEWLGGISPMFGTPNYAQKFQGRVTITADQSTRTAYMDLRSLRSEDTAVYYCARSPSYICSGGTCVFDHWGQGTLVTVSS
# VL: QPGLTQPPSVSKGLRQTATLTCTGNSNNVGNQGAAWLQQHQGHPPKLLSYRNNDRPSGISERFSASRSGNTASLTITGLQPEDEADYYCSTWDSSLSAVVFGGGTKLTVL
# B3: A66-IgG1 (antibody, V domains shown)
# VH: QVQLVQSGAEVKKPGSSVKVSCKASGGPFSMTAFTWLRQAPGQGLEWMGGISPIFRTPKYAQKFQGRVTITADESTNTANMELTSLKSEDTAVYYCARTLSSYQPNNDAFAIWGQGTMVTVSS
# VL: EIVLTQSPATLSLSPGERATLSCRASQSVSSYLAWYQQKPGQAPRLLIYDASNRATGIPARFSGSGSGTDFTLTISRLEPEDFAVYFCQQYGSSPQFGQGTRLEIK
# Columns and labels:
# Test in all cases: FACS on transfected 293T cells
# [1] = target: full-length H13 HA of H13-MD77 (A/Gull/MD/704/77 (H13N6)) (influenza A virus A/Gull/MD/704/77 …, UniProt P13103 19-566)
# Chain of full-length H13 HA of H13-MD77 (A/Gull/MD/704/77 (H13N6)) (P13103 19-566): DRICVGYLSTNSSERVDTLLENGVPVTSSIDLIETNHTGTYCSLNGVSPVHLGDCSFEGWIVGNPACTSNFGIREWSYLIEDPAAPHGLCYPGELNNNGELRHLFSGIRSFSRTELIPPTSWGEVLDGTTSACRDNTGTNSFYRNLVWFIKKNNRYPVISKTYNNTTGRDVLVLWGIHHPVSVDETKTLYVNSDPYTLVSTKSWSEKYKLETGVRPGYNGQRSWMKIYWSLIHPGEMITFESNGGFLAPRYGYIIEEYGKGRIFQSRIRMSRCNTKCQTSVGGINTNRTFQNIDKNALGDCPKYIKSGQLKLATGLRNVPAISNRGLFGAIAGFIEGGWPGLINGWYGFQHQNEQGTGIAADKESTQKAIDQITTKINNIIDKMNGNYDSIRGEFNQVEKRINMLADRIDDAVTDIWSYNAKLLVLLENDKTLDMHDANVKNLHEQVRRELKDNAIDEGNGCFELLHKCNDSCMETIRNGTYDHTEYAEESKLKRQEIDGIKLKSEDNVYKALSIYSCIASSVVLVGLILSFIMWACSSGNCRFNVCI
# [2] = target: full-length H14 HA of H14-CU82 (A/mallard/Gurjev/263/82 (H14N5)) (influenza A virus …, UniProt P26136 18-568)
# Chain of full-length H14 HA of H14-CU82 (A/mallard/Gurjev/263/82 (H14N5)) (P26136 18-568 limits assumed): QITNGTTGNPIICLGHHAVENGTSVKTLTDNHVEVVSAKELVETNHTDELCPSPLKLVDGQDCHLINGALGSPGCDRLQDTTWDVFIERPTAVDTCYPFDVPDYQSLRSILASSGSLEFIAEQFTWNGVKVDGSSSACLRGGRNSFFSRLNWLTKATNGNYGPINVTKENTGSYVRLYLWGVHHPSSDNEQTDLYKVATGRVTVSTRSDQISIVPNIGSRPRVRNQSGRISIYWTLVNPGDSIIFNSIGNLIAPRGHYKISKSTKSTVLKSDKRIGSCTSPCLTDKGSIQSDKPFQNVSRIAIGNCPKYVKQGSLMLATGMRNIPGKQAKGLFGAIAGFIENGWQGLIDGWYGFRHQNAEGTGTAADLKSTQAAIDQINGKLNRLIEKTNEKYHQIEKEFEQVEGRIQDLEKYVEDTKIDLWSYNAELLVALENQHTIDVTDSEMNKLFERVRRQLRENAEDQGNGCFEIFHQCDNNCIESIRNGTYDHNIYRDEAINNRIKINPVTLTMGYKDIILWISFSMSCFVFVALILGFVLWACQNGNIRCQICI
# [3] = target: full-length H1 HA of H1-PR34 (A/Puerto Rico/8/34 (H1N1)) (influenza A virus A/Puerto Rico/8/34 …, UniProt P03452 18-565)
# Chain of full-length H1 HA of H1-PR34 (A/Puerto Rico/8/34 (H1N1)) (P03452 18-565): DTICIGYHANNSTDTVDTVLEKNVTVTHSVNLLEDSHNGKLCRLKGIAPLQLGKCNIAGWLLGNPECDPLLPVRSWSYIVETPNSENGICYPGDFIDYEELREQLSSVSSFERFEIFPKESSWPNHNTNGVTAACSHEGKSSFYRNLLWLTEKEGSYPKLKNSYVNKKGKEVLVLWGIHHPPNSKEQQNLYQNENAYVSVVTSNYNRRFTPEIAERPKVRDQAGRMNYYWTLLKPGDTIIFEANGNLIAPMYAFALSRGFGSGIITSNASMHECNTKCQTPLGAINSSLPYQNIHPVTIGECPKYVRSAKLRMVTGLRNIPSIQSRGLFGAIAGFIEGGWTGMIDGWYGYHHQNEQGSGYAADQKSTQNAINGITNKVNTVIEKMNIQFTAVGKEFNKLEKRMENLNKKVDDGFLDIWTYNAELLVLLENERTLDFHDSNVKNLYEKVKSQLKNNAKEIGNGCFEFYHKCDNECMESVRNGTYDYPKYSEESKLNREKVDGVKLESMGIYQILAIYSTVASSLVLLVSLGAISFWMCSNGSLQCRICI
# [4] = target: full-length H8 HA of H8-ON68 (A/turkey/Ontario/6118/68) (influenza A virus …, UniProt P03456 16-565)
# Chain of full-length H8 HA of H8-ON68 (A/turkey/Ontario/6118/68) (P03456 16-565 limits assumed): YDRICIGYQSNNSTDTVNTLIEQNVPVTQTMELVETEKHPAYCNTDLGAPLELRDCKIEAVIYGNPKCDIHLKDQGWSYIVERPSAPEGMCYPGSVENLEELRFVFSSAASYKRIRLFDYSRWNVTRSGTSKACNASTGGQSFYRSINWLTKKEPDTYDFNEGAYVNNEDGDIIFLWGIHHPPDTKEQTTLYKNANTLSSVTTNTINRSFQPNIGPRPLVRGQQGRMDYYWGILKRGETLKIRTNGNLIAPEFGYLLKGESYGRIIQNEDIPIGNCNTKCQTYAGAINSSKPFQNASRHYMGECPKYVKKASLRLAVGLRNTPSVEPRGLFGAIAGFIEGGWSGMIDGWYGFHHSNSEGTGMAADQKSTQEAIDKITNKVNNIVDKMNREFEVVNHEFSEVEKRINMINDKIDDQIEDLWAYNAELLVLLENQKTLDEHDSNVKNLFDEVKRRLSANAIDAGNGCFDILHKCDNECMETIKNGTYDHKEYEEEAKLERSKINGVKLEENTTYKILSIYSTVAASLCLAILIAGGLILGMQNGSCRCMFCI
# [5] = target: full-length H1 HA of H1-SC1918 (A/South Carolina/1/1918 (H1N1)) (influenza A virus A/South …, UniProt Q9WFX3 18-566)
# Chain of full-length H1 HA of H1-SC1918 (A/South Carolina/1/1918 (H1N1)) (Q9WFX3 18-566): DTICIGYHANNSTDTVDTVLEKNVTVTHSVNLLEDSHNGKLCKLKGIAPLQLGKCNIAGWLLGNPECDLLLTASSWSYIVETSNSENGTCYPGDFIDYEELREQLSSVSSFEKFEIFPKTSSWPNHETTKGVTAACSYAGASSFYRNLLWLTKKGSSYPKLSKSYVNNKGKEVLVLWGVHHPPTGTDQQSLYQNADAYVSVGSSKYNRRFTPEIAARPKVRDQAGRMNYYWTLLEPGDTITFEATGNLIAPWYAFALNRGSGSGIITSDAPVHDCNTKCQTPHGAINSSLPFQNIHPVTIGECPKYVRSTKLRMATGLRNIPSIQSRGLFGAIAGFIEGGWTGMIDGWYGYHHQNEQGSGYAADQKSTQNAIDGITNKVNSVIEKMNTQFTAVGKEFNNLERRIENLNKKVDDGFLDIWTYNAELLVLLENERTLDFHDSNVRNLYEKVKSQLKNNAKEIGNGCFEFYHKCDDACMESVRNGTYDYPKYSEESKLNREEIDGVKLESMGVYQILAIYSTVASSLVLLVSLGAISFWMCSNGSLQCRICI
# [6] = target: full-length H2 HA of H2-JP57 (A/Japan/305/57 (H2N2)) (influenza A virus A/Japan/305/57 (H2N2), UniProt P03451 16-562)
# [7] = target: full-length H7 HA of H7-FP34 (A/FPV/Rostock/34 (H7N1)) (influenza A virus A/FPV/Rostock/34 …, UniProt P03459 19-563)
# Chain of full-length H7 HA of H7-FP34 (A/FPV/Rostock/34 (H7N1)) (P03459 19-563): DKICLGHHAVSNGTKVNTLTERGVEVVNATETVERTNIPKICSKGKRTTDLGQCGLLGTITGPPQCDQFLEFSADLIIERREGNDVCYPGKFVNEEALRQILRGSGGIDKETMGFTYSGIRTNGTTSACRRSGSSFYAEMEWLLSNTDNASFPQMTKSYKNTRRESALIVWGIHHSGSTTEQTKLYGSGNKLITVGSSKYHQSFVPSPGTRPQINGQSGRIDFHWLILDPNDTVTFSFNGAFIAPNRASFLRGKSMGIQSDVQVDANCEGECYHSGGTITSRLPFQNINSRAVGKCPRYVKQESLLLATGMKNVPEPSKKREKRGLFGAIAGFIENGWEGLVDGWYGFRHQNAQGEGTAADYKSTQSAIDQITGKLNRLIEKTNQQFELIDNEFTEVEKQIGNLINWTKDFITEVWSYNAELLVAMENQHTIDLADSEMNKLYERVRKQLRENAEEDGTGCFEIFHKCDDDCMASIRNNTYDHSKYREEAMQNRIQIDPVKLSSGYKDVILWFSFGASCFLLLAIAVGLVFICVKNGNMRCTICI
Binder,binding result [1],binding result [2],binding result [3],binding result [4],binding result [5],binding result [6],binding result [7]
B1,binds,no binding,binds,binds,binds,binds,no binding (tested: 10 µg/mL)
B2,binds,no binding,binds,binds,binds,binds,no binding (tested: 10 µg/mL)
B3,binds,no binding,binds,binds,binds,binds,no binding (tested: 10 µg/mL)
